In patent publication US20250304927A1, “PRO-PEPTIDE VARIANTS FOR MODULATING ACTIVITY OF TRANSGLUTAMINASES” (CURIE CO. INC., priority 2022, published 2025):

Each binder was assayed against T1, thermostable variant of Streptomyces mobaraensis transglutaminase (Streptomyces mobaraensis, UniProt P81453 79-407) (assay: cell-based or functional assay).
T1 sequence: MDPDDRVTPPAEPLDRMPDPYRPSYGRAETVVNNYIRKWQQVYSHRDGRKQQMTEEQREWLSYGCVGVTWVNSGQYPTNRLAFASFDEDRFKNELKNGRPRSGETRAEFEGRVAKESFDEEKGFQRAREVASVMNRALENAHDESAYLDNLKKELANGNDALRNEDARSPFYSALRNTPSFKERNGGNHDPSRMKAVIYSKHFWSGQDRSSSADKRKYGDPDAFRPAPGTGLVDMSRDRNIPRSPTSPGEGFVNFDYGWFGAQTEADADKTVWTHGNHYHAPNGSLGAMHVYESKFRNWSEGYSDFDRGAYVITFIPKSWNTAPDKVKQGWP

Row | Binder | Reduction in binding affinity of inhibitory peptide relative to WT [fold]
1 | MDNGAGEETKSYAETYR [pro-peptide truncation variant ΔL18-P46] | > 1.2
2 | MDNGAGEETKS [pro-peptide truncation variant ΔY12-P46] | > 1.2
3 | MDNGAGEGTKSYAETYRLTADDVANINALNESAPAASSAGPSFRAP [pro-peptide variant E8G] | > 1.2
4 | MDNGAGEETKSYAETYRLTADDVANENALNESAPAASSAGPSFRAP [pro-peptide variant I26E] | > 1.2
5 | MDNGAGEETKSYAETYRLTADGVANINALNESAPAASSAGPSFRAP [pro-peptide variant D22G] | > 1.2
6 | MDNGAGEETKKYAETYRLTADDVANINALNESAPAASSAGPSFRAP [pro-peptide variant S11K] | > 1.2
7 | MDNGAGEETKSYAETYRLTALDVANINALNESAPAASSAGPSFRAP [pro-peptide variant D21L] | > 5
8 | MDNGAGEETDSYAETYRLTADDVANINALNESAPAASSAGPSFRAP [pro-peptide variant K10D] | > 1.2
9 | MDNGAGEETKSYAETYRLTADDVANINALNESAPAASDAGPSFRAP [pro-peptide variant S38D] | > 1.2
10 | MDNGAGEETKLYAETYRLTADDVANINALNESAPAASSAGPSFRAP [pro-peptide variant S11L] | > 1.2
11 | MDNGAGEETKSGAETYRLTADDVANINALNESAPAASSAGPSFRAP [pro-peptide variant Y12G] | > 1.2
12 | MDNGAGEETKSYATTYRLTADDVANINALNESAPAASSAGPSFRAP [pro-peptide variant E14T] | > 1.2
13 | MDNGAGEETKSYAETYRLTADDVANINALNESAPAASPAGPSFRAP [pro-peptide variant S38P] | > 1.2
14 | MDNGAGEETKSYAETYRLTADPVANINALNESAPAASSAGPSFRAP [pro-peptide variant D22P] | > 1.2
15 | MDNGAGEETKSYAETYRLTADDVANANALNESAPAASSAGPSFRAP [pro-peptide variant I26A] | > 1.2
16 | MDNGAGEETKSYAETYRLTADQVANINALNESAPAASSAGPSFRAP [pro-peptide variant D22Q] | > 1.2
17 | MDNGAGEETKSYARTYRLTADDVANINALNESAPAASSAGPSFRAP [pro-peptide variant E14R] | > 1.2
18 | MDNGAGEETKSYAETYRLTARDVANINALNESAPAASSAGPSFRAP [pro-peptide variant D21R] | > 5
19 | MDNGAGEYTKSYAETYRLTADDVANINALNESAPAASSAGPSFRAP [pro-peptide variant E8Y] | > 1.2
20 | MDNGAGEETRSYAETYRLTADDVANINALNESAPAASSAGPSFRAP [pro-peptide variant K10R] | > 1.2
21 | MDNGAGEETKSYANTYRLTADDVANINALNESAPAASSAGPSFRAP [pro-peptide variant E14N] | > 1.2
22 | MDNGAGEETKSYAETYRWTADDVANINALNESAPAASSAGPSFRAP [pro-peptide variant L18W] | > 1.2

Row | Binder | Reduction in binding affinity of inhibitory peptide relative to WT [fold]
23 | MDNGAGEETKSNAETYRLTADDVANINALNESAPAASSAGPSFRAP [pro-peptide variant Y12N] | > 1.2
24 | MDNGAGEETKSYAVTYRLTADDVANINALNESAPAASSAGPSFRAP [pro-peptide variant E14V] | > 1.2
25 | MDNGAGEETKSYAHTYRLTADDVANINALNESAPAASSAGPSFRAP [pro-peptide variant E14H] | > 1.2
26 | MDNGAGEETKSYAETYRLTADRVANINALNESAPAASSAGPSFRAP [pro-peptide variant D22R] | > 1.2
27 | MDNGAGEETKSVAETYRLTADDVANINALNESAPAASSAGPSFRAP [pro-peptide variant Y12V] | > 1.2
28 | MDNGAGEETKSLAETYRLTADDVANINALNESAPAASSAGPSFRAP [pro-peptide variant Y12L] | > 1.2
29 | MDNGAGEETKSYAETYRKTADDVANINALNESAPAASSAGPSFRAP [pro-peptide variant L18K] | > 1.2
30 | MDNGAGEETKDYAETYRLTADDVANINALNESAPAASSAGPSFRAP [pro-peptide variant S11D] | > 1.2
31 | MDNGAGEETKSYAETYRLTADDVENINALNESAPAASSAGPSFRAP [pro-peptide variant A24E] | > 1.2
32 | MDNGAGEEQKSYAETYRLTADDVANINALNESAPAASSAGPSFRAP [pro-peptide variant T9Q] | > 1.2
33 | MDNGAGEETKSYAETYRLTADDVHNINALNESAPAASSAGPSFRAP [pro-peptide variant A24H] | > 1.2
34 | MDNGAGEETKSYAETYRETADDVANINALNESAPAASSAGPSFRAP [pro-peptide variant L18E] | > 1.2
35 | MDNGAGEETKSYAGTYRLTADDVANINALNESAPAASSAGPSFRAP [pro-peptide variant E14G] | > 1.2
36 | MDNGAGEETKSTAETYRLTADDVANINALNESAPAASSAGPSFRAP [pro-peptide variant Y12T] | > 1.2
37 | MDNGAGEETGSYAETYRLTADDVANINALNESAPAASSAGPSFRAP [pro-peptide variant K10G] | > 1.2
38 | MDNGAGGETKSYAETYRLTADDVANINALNESAPAASSAGPSFRAP [pro-peptide variant E7G] | > 1.2
39 | MDNGAGEETKSYAETYRLTADYVANINALNESAPAASSAGPSFRAP [pro-peptide variant D22Y] | > 1.2
40 | MDNGAGEETKSYAETYRLTADDVANINALNESAPAASYAGPSFRAP [pro-peptide variant S38Y] | > 1.2
41 | MDNGAGEETKSYAETYRLTADDVPNINALNESAPAASSAGPSFRAP [pro-peptide variant A24P] | > 5
42 | MDNGAGEETKSYAETYRSTADDVANINALNESAPAASSAGPSFRAP [pro-peptide variant L18S] | > 1.2
43 | MDNGAGEETKSYAETYRLTADDVAN [pro-peptide truncation variant ΔI26-P46] | > 1.2
44 | MDNGAGEETKSYAETYRLTAD [pro-peptide truncation variant ΔD22-P46] | > 1.2

Target: T1, thermostable variant of Streptomyces …
Assay: cell-based or functional assay
Remark: another data set of the same source

Row | Binder | Improvement in pH responsiveness of inhibitory peptide relative to WT [fold]
45 | MDNGAGEETKSYAETYR [pro-peptide truncation variant ΔL18-P46] | > 5
46 | MDNGAGEETKS [pro-peptide truncation variant ΔY12-P46] | > 1.2
47 | MDNGAGEGTKSYAETYRLTADDVANINALNESAPAASSAGPSFRAP [pro-peptide variant E8G] | > 1.2
48 | MDNGAGEETKSYAETYRLTADGVANINALNESAPAASSAGPSFRAP [pro-peptide variant D22G] | > 1.2
49 | MDNGAGEETKKYAETYRLTADDVANINALNESAPAASSAGPSFRAP [pro-peptide variant S11K] | > 1.2
50 | MDNGAGEETKSYAETYRLTALDVANINALNESAPAASSAGPSFRAP [pro-peptide variant D21L] | > 1.2
51 | MDNGAGEETDSYAETYRLTADDVANINALNESAPAASSAGPSFRAP [pro-peptide variant K10D] | > 1.2
52 | MDNGAGEETKLYAETYRLTADDVANINALNESAPAASSAGPSFRAP [pro-peptide variant S11L] | > 1.2
53 | MDNGAGEETKSGAETYRLTADDVANINALNESAPAASSAGPSFRAP [pro-peptide variant Y12G] | > 1.2
54 | MDNGAGEETKSYATTYRLTADDVANINALNESAPAASSAGPSFRAP [pro-peptide variant E14T] | > 1.2
55 | MDNGAGEETKSYARTYRLTADDVANINALNESAPAASSAGPSFRAP [pro-peptide variant E14R] | > 1.2
56 | MDNGAGEETKSYAETYRLTARDVANINALNESAPAASSAGPSFRAP [pro-peptide variant D21R] | > 1.2
57 | MDNGAGEYTKSYAETYRLTADDVANINALNESAPAASSAGPSFRAP [pro-peptide variant E8Y] | > 1.2
58 | MDNGAGEETRSYAETYRLTADDVANINALNESAPAASSAGPSFRAP [pro-peptide variant K10R] | > 1.2
59 | MDNGAGEETKSYANTYRLTADDVANINALNESAPAASSAGPSFRAP [pro-peptide variant E14N] | > 5
60 | MDNGAGEETKSYAETYRWTADDVANINALNESAPAASSAGPSFRAP [pro-peptide variant L18W] | > 1.2
61 | MDNGAGEETKSNAETYRLTADDVANINALNESAPAASSAGPSFRAP [pro-peptide variant Y12N] | > 1.2
62 | MDNGAGEETKSYAVTYRLTADDVANINALNESAPAASSAGPSFRAP [pro-peptide variant E14V] | > 1.2
63 | MDNGAGEETKSVAETYRLTADDVANINALNESAPAASSAGPSFRAP [pro-peptide variant Y12V] | > 1.2
64 | MDNGAGEETKSLAETYRLTADDVANINALNESAPAASSAGPSFRAP [pro-peptide variant Y12L] | > 1.2
65 | MDNGAGEETKSYAETYRKTADDVANINALNESAPAASSAGPSFRAP [pro-peptide variant L18K] | > 1.2
66 | MDNGAGEETKDYAETYRLTADDVANINALNESAPAASSAGPSFRAP [pro-peptide variant S11D] | > 1.2
67 | MDNGAGEEQKSYAETYRLTADDVANINALNESAPAASSAGPSFRAP [pro-peptide variant T9Q] | > 1.2
68 | MDNGAGEETKSYAETYRLTADDVHNINALNESAPAASSAGPSFRAP [pro-peptide variant A24H] | > 5
69 | MDNGAGEETKSYAGTYRLTADDVANINALNESAPAASSAGPSFRAP [pro-peptide variant E14G] | > 5
70 | MDNGAGEETKSTAETYRLTADDVANINALNESAPAASSAGPSFRAP [pro-peptide variant Y12T] | > 1.2
71 | MDNGAGEETGSYAETYRLTADDVANINALNESAPAASSAGPSFRAP [pro-peptide variant K10G] | > 5
72 | MDNGAGGETKSYAETYRLTADDVANINALNESAPAASSAGPSFRAP [pro-peptide variant E7G] | > 5
73 | MDNGAGEETKSYAETYRLTADDVAN [pro-peptide truncation variant ΔI26-P46] | > 1.2
